± gives the uncertainty stated by the source.

In the Human Domainome abundance scans (Beltran et al. 2025) one finds abundance fitness data, which are given here for 167 variants.

B1: KAT8 regulatory NSL complex subunit 2, residues 28 to 91; numbered along this chain, Q9H9L4 (parent)
chain: CAFTHRPCSHPRLEGQEFCIKHILEDKNAPFKQCSYISTKNGKRCPNAAPKPEKKDGVSFCAEH
B2: Syntaxin-binding protein 4, residues 493 to 538; numbered along this chain, Q6ZWJ1 (parent)
chain: LDMDCLPYGWEEAYTADGIKYFINHVTQTTSWIHPVMSVLNLSRSE

In the first series the parent is B1. The series is described as follows: abundance fitness (aPCA) (normalised: wild type 0, dead -1); higher = more abundant; growth selection in yeast, the domain comes from the species named. The conditions noted are these: Homo sapiens.
On to E17C, for which the abundance fitness is -0.112 ± 0.12.

E17I: the abundance fitness is -0.036 ± 0.079.

In the case of E17H, the abundance fitness is -0.129 ± 0.098.

As to K40S, the abundance fitness was -0.299 ± 0.43.

Consider Q16I, for which the abundance fitness is -0.497 ± 0.09.

For Q16N, the abundance fitness was -0.25 ± 0.086.

For the variant N47S, the abundance fitness is -0.035 ± 0.064.

In the case of N47M, the abundance fitness is -0.074 ± 0.06.

As to N47C, the abundance fitness was -0.029 ± 0.089.

For the variant D26Y, the abundance fitness was -0.223 ± 0.097.

Take D26F: the abundance fitness was -0.245 ± 0.067.

As to D26S, the abundance fitness is -0.117 ± 0.058.

R44M: the abundance fitness was -0.04 ± 0.059.

For the variant R44W, the abundance fitness was -0.112 ± 0.052.

For the variant C1L, the abundance fitness is -0.886 ± 0.14.

Turning to C1T, the abundance fitness was -0.89 ± 0.29.

On to K51R, for which the abundance fitness was -0.087 ± 0.075.

Take T4I: the abundance fitness was -0.114 ± 0.1.

On to T4H, for which the abundance fitness was -0.128 ± 0.08.

As to A48S, the abundance fitness was -0.168 ± 0.051.

As for A48W, the abundance fitness is -0.333 ± 0.062.

Regarding P11R, the abundance fitness was -0.092 ± 0.051.

On to P11G, for which the abundance fitness is -0.133 ± 0.062.

Turning to P11E, the abundance fitness was -0.004 ± 0.059.

Y36Q: the abundance fitness is -0.078 ± 0.11.

In the case of Y36V, the abundance fitness is -0.129 ± 0.045.

For Y36F, the abundance fitness was -0.015 ± 0.08.

Regarding E63A, the abundance fitness was -0.064 ± 0.063.

For K43I, the abundance fitness is -0.181 ± 0.088.

In the case of K43F, the abundance fitness is -0.172 ± 0.076.

For K43V, the abundance fitness was -0.074 ± 0.049.

In the case of R6G, the abundance fitness is -0.068 ± 0.055.

For the variant R6C, the abundance fitness is -0.032 ± 0.066.

As for A29Q, the abundance fitness is -0.278 ± 0.14.

In the case of A29N, the abundance fitness is -0.22 ± 0.15.

As for Q33G, the abundance fitness was -0.142 ± 0.063.

L13G: the abundance fitness is -0.423 ± 0.072.

For L13E, the abundance fitness was -0.334 ± 0.12.

On to I37G, for which the abundance fitness was -0.022 ± 0.04.

Turning to L24G, the abundance fitness was -0.098 ± 0.047.

L24H: the abundance fitness is -0.227 ± 0.1.

Consider L24D, for which the abundance fitness was -0.13 ± 0.071.

For the variant L24F, the abundance fitness is -0.195 ± 0.088.

F31G: the abundance fitness is -0.1 ± 0.062.

With F31L, the abundance fitness was -0.188 ± 0.052.

For the variant K27V, the abundance fitness is -0.104 ± 0.062.

For P52V, the abundance fitness was -0.083 ± 0.053.

On to P52F, for which the abundance fitness is -0.01 ± 0.12.

Take S38A: the abundance fitness was -0.002 ± 0.058.

With G15E, the abundance fitness was -0.219 ± 0.073.

Turning to G15N, the abundance fitness is -0.134 ± 0.12.

H10P: the abundance fitness is -1.12 ± 0.12.

In the case of H10M, the abundance fitness is -0.047 ± 0.061.

On to I20S, for which the abundance fitness was -0.136 ± 0.068.

In the case of C8G, the abundance fitness is -0.742 ± 0.056.

For the variant C8Q, the abundance fitness was -0.832 ± 0.093.

With H22Y, the abundance fitness was -1.07 ± 0.16.

K21T: the abundance fitness was -0.157 ± 0.079.

K21N: the abundance fitness was -0.125 ± 0.095.

Regarding F3Q, the abundance fitness is -0.28 ± 0.055.

As for F3C, the abundance fitness was -0.14 ± 0.077.

For P30W, the abundance fitness was -0.514 ± 0.087.

Regarding P30A, the abundance fitness is -0.205 ± 0.06.

Regarding C34S, the abundance fitness is -0.321 ± 0.058.

Regarding C34I, the abundance fitness is -0.56 ± 0.16.

Take V58R: the abundance fitness is -0.082 ± 0.096.

Regarding V58C, the abundance fitness came out at 0.012 ± 0.064.

On to V58W, for which the abundance fitness was -0.121 ± 0.11.

With G42V, the abundance fitness was -0.108 ± 0.054.

Consider G42N, for which the abundance fitness is -0.117 ± 0.087.

With E14M, the abundance fitness is -0.034 ± 0.12.

Consider E14C, for which the abundance fitness is -0.168 ± 0.053.

In the case of K32P, the abundance fitness is -0.211 ± 0.073.

Take K32A: the abundance fitness is -0.075 ± 0.061.

Turning to P7N, the abundance fitness is -0.204 ± 0.21.

Consider P50L, for which the abundance fitness is -0.131 ± 0.069.

For P50V, the abundance fitness was -0.204 ± 0.07.

As to P50E, the abundance fitness turned out to be 0.095 ± 0.2.

In the case of P50Y, the abundance fitness was -0.249 ± 0.079.

On to S35A, for which the abundance fitness was -0.04 ± 0.06.

Take A62G: the abundance fitness is -0.078 ± 0.046.

As for A62W, the abundance fitness is -0.088 ± 0.031.

The variants in the next series derive from B2. The series is described as above. The conditions noted are these: Homo sapiens.
Regarding P35V, the abundance fitness was -0.882 ± 0.1.

As to P35R, the abundance fitness was -0.88 ± 0.097.

Consider P35S, for which the abundance fitness is -0.661 ± 0.11.

As to P35A, the abundance fitness was -1.01 ± 0.11.

In the case of P35N, the abundance fitness is -0.862 ± 0.18.

On to P35W, for which the abundance fitness is -0.775 ± 0.16.

For the variant P35T, the abundance fitness is -0.686 ± 0.16.

In the case of P35E, the abundance fitness is -0.634 ± 0.15.

For P35F, the abundance fitness is -0.895 ± 0.16.

On to P35C, for which the abundance fitness was -1.06 ± 0.21.

On to P35M, for which the abundance fitness is -0.814 ± 0.14.

As for P35Y, the abundance fitness was -0.369 ± 0.15.

For P35Q, the abundance fitness is -0.72 ± 0.14.

P35K: the abundance fitness was -0.533 ± 0.15.

Turning to P35I, the abundance fitness was -0.82 ± 0.16.

For P35H, the abundance fitness was -0.83 ± 0.15.

On to L42P, for which the abundance fitness was -0.304 ± 0.14.

Take L42H: the abundance fitness is 0.52 ± 0.14.

As to L42R, the abundance fitness stood at 0.108 ± 0.085.

For L42M, the abundance fitness was -0.046 ± 0.11.

Turning to L42N, the abundance fitness is 0.578 ± 0.12.

Consider L42Y, for which the abundance fitness is -0.876 ± 0.21.

On to L42V, for which the abundance fitness stood at 0.052 ± 0.081.

With L42E, the abundance fitness is 0.198 ± 0.1.

Regarding L42C, the abundance fitness was 0.025 ± 0.12.

L42K: the abundance fitness stood at 0.16 ± 0.12.

As for L42T, the abundance fitness worked out at 0.048 ± 0.12.

L42G: the abundance fitness was 0.174 ± 0.077.

Turning to L42A, the abundance fitness was -0.05 ± 0.088.

For L42S, the abundance fitness worked out at 0.162 ± 0.095.

Consider L42D, for which the abundance fitness worked out at 0.022 ± 0.14.

With L42W, the abundance fitness was -0.292 ± 0.1.

For I33H, the abundance fitness is -0.084 ± 0.14.

Turning to I33G, the abundance fitness is -0.199 ± 0.088.

On to I33F, for which the abundance fitness was -0.549 ± 0.22.

I33C: the abundance fitness turned out to be 0.031 ± 0.12.

With I33K, the abundance fitness was -0.276 ± 0.13.

Consider I33M, for which the abundance fitness was -0.091 ± 0.15.

In the case of I33N, the abundance fitness was -0.243 ± 0.19.

Regarding I33S, the abundance fitness is 0.1 ± 0.1.

For the variant I33L, the abundance fitness was -0.245 ± 0.089.

As to I33T, the abundance fitness was -0.075 ± 0.12.

Take I33W: the abundance fitness was -0.743 ± 0.13.

As to I33A, the abundance fitness is -0.248 ± 0.1.

As to I33Q, the abundance fitness is 0.064 ± 0.14.

On to I33Y, for which the abundance fitness was -0.162 ± 0.17.

In the case of I33D, the abundance fitness came out at 0.272 ± 0.15.

With I33P, the abundance fitness is -0.897 ± 0.15.

Regarding I33E, the abundance fitness was determined as 0.511 ± 0.12.

Take I33R: the abundance fitness is -0.481 ± 0.094.

As to V39M, the abundance fitness is -0.174 ± 0.12.

Turning to V39G, the abundance fitness was 0.352 ± 0.086.

Turning to V39K, the abundance fitness is -0.205 ± 0.12.

V39F: the abundance fitness is 0.072 ± 0.15.

V39Q: the abundance fitness was determined as 0.223 ± 0.12.

Regarding V39Y, the abundance fitness is -0.851 ± 0.26.

With V39N, the abundance fitness worked out at 0.168 ± 0.18.

V39S: the abundance fitness is -0.079 ± 0.093.

V39W: the abundance fitness is -0.55 ± 0.13.

For V39C, the abundance fitness is -0.134 ± 0.16.

As to V39H, the abundance fitness is -0.263 ± 0.18.

For V39I, the abundance fitness is -0.599 ± 0.15.

V39T: the abundance fitness worked out at 0.04 ± 0.11.

On to V39L, for which the abundance fitness is -0.386 ± 0.097.

V39D: the abundance fitness amounted to 0.466 ± 0.11.

For the variant V39P, the abundance fitness came out at 1.03 ± 0.11.

V39E: the abundance fitness was found to be 0.144 ± 0.098.

On to V39R, for which the abundance fitness was -0.083 ± 0.086.

In the case of V39A, the abundance fitness is -0.135 ± 0.095.

As for L40W, the abundance fitness was -0.136 ± 0.1.

In the case of L40K, the abundance fitness was found to be 0.041 ± 0.11.

L40N: the abundance fitness was found to be 0.04 ± 0.15.

L40P: the abundance fitness was 0.067 ± 0.11.

As for L40Y, the abundance fitness was -0.584 ± 0.16.

Consider L40G, for which the abundance fitness came to 0.164 ± 0.085.

As for L40S, the abundance fitness is 0.139 ± 0.085.

On to L40H, for which the abundance fitness came out at 0.07 ± 0.19.

L40A: the abundance fitness was -0.127 ± 0.11.

Take L40R: the abundance fitness was -0.003 ± 0.082.

As for L40D, the abundance fitness was -0.471 ± 0.17.

For the variant L40Q, the abundance fitness amounted to 0.046 ± 0.11.

As for L40E, the abundance fitness was 0.111 ± 0.11.

For L40I, the abundance fitness is -0.816 ± 0.16.

Consider L40V, for which the abundance fitness was -0.273 ± 0.096.

With L40T, the abundance fitness is -0.319 ± 0.11.
